Results reported in PMC4652764, “The La-related protein 1-specific domain repurposes HEAT-like repeats to directly bind a 5′TOP sequence”.

Columns and labels:
Conditions in all cases: protein: recombinant; tags: His6-MBP removed by TEV; glycine linker remnant; label: 5'-32P (EMSA, probing)
DM15 GQ908-909AA = DM15 GQ908-909AA (human, UniProt Q6PKG0 873-1023, G985A;Q986A); assay: EMSA; up to 150 uM; two-state shift like WT, more protein needed for maximum shift; EMSA: 20 mM Tris-HCl pH 8, 150 mM NaCl, 10% glycerol, 1 mM DTT, 0.5 ug tRNA, 1 ug BSA, <2 nM RNA, 30 min on ice, native 0.5x TBE gel at 4 C
DM15 R840E = DM15 R840E (human, UniProt Q6PKG0 873-1023, R917E); assay: EMSA; up to 30 uM protein; EMSA: 20 mM Tris-HCl pH 8, 150 mM NaCl, 10% glycerol, 1 mM DTT, 0.5 ug tRNA, 1 ug BSA, <2 nM RNA, 30 min on ice, native 0.5x TBE gel at 4 C
DM15 Y883A = DM15 Y883A (human, UniProt Q6PKG0 873-1023, Y960A); assay: as above

Does CCUCUUUUCCGUGGCGCCUC (ssRNA) [RPS6-20mer] bind (DM15 GQ908-909AA)?
Result: binds

Does CCUCUUUUCCGUGGCGCCUC (ssRNA) [RPS6-20mer] bind (DM15 R840E)?
Result: no binding

Does CCUCUUUUCCGUGGCGCCUC (ssRNA) [RPS6-20mer] bind (DM15 Y883A)?
Result: no binding
